For one substance, Ka results are on record in patent US20140005098A1.

One experiment deals with IGF-II (UniProt P01344). In words: competition binding with 125I-IGF-I tracer and unlabelled IGF-II as competitor, Scatchard analysis.
A further experiment has as its target IGF-I (UniProt P05019). In words: competition binding with 125I-IGF-I tracer and unlabelled IGF-I as competitor, Scatchard analysis.

Chain of IGF-I (P05019 49-118 limits assumed): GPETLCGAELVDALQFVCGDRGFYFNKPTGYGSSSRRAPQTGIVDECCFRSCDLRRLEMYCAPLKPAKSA
Chain of IGF-II (P01344 25-91 limits assumed): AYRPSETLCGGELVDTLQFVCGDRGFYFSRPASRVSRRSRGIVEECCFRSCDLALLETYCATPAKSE

With “mini-IGFBP-3 (mutated recombinant IGFBP-3; H6-mini-IGFBP-3) (from UniProt P17936 28-121; P17936 207-291)”, the Ka in the experiment with IGF-II came to 3.14e+10 M⁻¹; in the experiment with IGF-I, 2.4e+10 M⁻¹.
